System: Abp1 PPIs
Experiment: DHFR-PCA of Abp1 SH3-swapped baits (Fig. 2B-D, S2C, S2F);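 as to Protein-protein interaction distance between Abp1 SH3-swapped baits, to ABP1: Euclidean distance between DHFR-PCA score profiles of the baits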;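 as to Protein-protein interaction distance between Abp1 SH3-swapped baits, to BEM1-2: Euclidean distance between DHFR-PCA score profiles of the baits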;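 as to Protein-protein interaction distance between Abp1 SH3-swapped baits, to BOI1: Euclidean distance between DHFR-PCA score profiles of the baits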;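 as to Protein-protein interaction distance between Abp1 SH3-swapped baits, to BZZ1-1: Euclidean distance between DHFR-PCA score profiles of the baits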
Type: cell-based, Saccharomyces cerevisiae
Method in brief: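 Yeast DHFR-PCA in which Abp1 baits, carrying their SH3 replaced by CRISPR–Cas9 with one of 27 yeast SH3s or human CTTN, HCLS1 or DBNL SH3s, were mated against 575 SH3-associated DHFR F[3] preys plus 40 negative controls. Four tests were run per PPI. Diploids were selected twice (48 h, 30 °C), then grown 4 days on PCA selection media.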

[1] = number of PPIs, difference, Abp1 SH3-swapped with the listed SH3, Fig2D,S2F

B1: MYO3 (protein, UniProt P36006 1-1272, looked up)
Myosin-3: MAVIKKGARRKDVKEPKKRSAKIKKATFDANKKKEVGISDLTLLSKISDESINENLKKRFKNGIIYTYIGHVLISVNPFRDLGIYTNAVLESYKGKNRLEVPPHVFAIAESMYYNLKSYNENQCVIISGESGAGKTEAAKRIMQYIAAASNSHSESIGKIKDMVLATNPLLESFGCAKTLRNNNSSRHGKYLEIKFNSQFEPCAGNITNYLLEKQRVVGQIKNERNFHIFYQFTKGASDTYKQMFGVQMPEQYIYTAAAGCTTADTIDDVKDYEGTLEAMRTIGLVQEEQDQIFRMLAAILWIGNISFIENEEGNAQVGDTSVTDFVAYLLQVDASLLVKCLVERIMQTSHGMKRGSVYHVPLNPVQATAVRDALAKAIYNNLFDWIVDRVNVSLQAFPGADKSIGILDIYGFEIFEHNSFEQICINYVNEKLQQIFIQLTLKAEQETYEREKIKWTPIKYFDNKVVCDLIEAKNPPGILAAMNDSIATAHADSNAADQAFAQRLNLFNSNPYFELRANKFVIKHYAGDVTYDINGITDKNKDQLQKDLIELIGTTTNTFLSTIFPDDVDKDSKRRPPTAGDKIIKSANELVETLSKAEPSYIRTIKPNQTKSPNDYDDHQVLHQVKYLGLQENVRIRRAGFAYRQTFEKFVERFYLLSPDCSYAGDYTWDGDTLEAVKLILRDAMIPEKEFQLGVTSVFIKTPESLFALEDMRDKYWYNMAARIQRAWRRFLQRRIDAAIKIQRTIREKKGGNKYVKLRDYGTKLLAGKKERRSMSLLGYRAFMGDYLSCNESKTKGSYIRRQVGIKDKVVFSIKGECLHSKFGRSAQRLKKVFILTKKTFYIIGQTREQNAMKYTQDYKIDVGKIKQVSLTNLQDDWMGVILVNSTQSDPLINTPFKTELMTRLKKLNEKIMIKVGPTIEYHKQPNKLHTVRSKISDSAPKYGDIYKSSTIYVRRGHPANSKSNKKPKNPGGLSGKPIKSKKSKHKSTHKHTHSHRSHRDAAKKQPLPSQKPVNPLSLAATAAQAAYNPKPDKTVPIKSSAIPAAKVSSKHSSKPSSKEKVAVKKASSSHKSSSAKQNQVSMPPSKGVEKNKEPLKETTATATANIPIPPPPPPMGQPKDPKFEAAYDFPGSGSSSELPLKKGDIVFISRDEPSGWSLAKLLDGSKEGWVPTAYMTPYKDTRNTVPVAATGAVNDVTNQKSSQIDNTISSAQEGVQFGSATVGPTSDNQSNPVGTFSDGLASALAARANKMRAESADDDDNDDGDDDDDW
**Q.** With B1 as the molecule, how does the “Protein-protein interaction distance between Abp1 SH3-swapped baits, to ABP1” value (Abp1 bait with swapped SH3, distance to bait with ABP1 SH3, sheet Fig2C) read?
**A.** The value was 12.85.

**Q.** What about the “Protein-protein interaction distance between Abp1 SH3-swapped baits, to BBC1” value (distance to Abp1 bait with BBC1 SH3, sheet Fig2C) of the same molecule?
**A.** The value was 13.06.

**Q.** And the “Protein-protein interaction distance between Abp1 SH3-swapped baits, to BEM1-1” value (distance to Abp1 bait with BEM1-1 SH3, sheet Fig2C)?
**A.** Its value is 17.48.

**Q.** What about the “Protein-protein interaction distance between Abp1 SH3-swapped baits, to BEM1-2” value (distance to Abp1 bait with BEM1-2 SH3, sheet Fig2C) of the same molecule?
**A.** The value was 35.25.

**Q.** And the “Protein-protein interaction distance between Abp1 SH3-swapped baits, to BOI1” value (distance to Abp1 bait with BOI1 SH3, sheet Fig2C)?
**A.** Its value is 14.63.

**Q.** And the “Protein-protein interaction distance between Abp1 SH3-swapped baits, to BOI2” value (distance to Abp1 bait with BOI2 SH3, sheet Fig2C)?
**A.** The value was 17.97.

**Q.** And the “Protein-protein interaction distance between Abp1 SH3-swapped baits, to BUD14” value (distance to Abp1 bait with BUD14 SH3, sheet Fig2C)?
**A.** The value was 20.78.

**Q.** And the “Protein-protein interaction distance between Abp1 SH3-swapped baits, to BZZ1-1” value (distance to Abp1 bait with BZZ1-1 SH3, sheet Fig2C)?
**A.** Its value is 10.1.

**Q.** What about the “Protein-protein interaction distance between Abp1 SH3-swapped baits, to BZZ1-2” value (distance to Abp1 bait with BZZ1-2 SH3, sheet Fig2C) of the same molecule?
**A.** Its value is 14.12.

**Q.** And the “Protein-protein interaction distance between Abp1 SH3-swapped baits, to CDC25” value (distance to Abp1 bait with CDC25 SH3, sheet Fig2C)?
**A.** Its value is 29.41.

**Q.** And the “Protein-protein interaction distance between Abp1 SH3-swapped baits, to CTTN” value (distance to Abp1 bait with CTTN SH3, sheet Fig2C)?
**A.** Its value is 15.21.

**Q.** And the “Protein-protein interaction distance between Abp1 SH3-swapped baits, to CYK3” value (distance to Abp1 bait with CYK3 SH3, sheet Fig2C)?
**A.** Its value is 30.11.

**Q.** What about the “Protein-protein interaction distance between Abp1 SH3-swapped baits, to DBNL” value (distance to Abp1 bait with DBNL SH3, sheet Fig2C) of the same molecule?
**A.** The value was 10.74.

**Q.** And the “Protein-protein interaction distance between Abp1 SH3-swapped baits, to FUS1” value (distance to Abp1 bait with FUS1 SH3, sheet Fig2C)?
**A.** The value was 21.97.

**Q.** What about the “Protein-protein interaction distance between Abp1 SH3-swapped baits, to HCLS1” value (distance to Abp1 bait with HCLS1 SH3, sheet Fig2C) of the same molecule?
**A.** The value was 11.19.

**Q.** What about the “Protein-protein interaction distance between Abp1 SH3-swapped baits, to HOF1” value (distance to Abp1 bait with HOF1 SH3, sheet Fig2C) of the same molecule?
**A.** The value was 33.94.

**Q.** What about the “Protein-protein interaction distance between Abp1 SH3-swapped baits, to HSE1” value (distance to Abp1 bait with HSE1 SH3, sheet Fig2C) of the same molecule?
**A.** The value was 11.17.

**Q.** And the “Protein-protein interaction distance between Abp1 SH3-swapped baits, to LSB1” value (distance to Abp1 bait with LSB1 SH3, sheet Fig2C)?
**A.** Its value is 9.135.

**Q.** What about the “Protein-protein interaction distance between Abp1 SH3-swapped baits, to LSB3” value (distance to Abp1 bait with LSB3 SH3, sheet Fig2C) of the same molecule?
**A.** Its value is 9.625.

**Q.** And the “Protein-protein interaction distance between Abp1 SH3-swapped baits, to MYO3” value (distance to Abp1 bait with MYO3 SH3, sheet Fig2C)?
**A.** The value was 0.00.

**Q.** What about the “Protein-protein interaction distance between Abp1 SH3-swapped baits, to MYO5” value (distance to Abp1 bait with MYO5 SH3, sheet Fig2C) of the same molecule?
**A.** Its value is 5.861.

**Q.** And the “Protein-protein interaction distance between Abp1 SH3-swapped baits, to NBP2” value (distance to Abp1 bait with NBP2 SH3, sheet Fig2C)?
**A.** The value was 19.88.

**Q.** What about the “Protein-protein interaction distance between Abp1 SH3-swapped baits, to PEX13” value (distance to Abp1 bait with PEX13 SH3, sheet Fig2C) of the same molecule?
**A.** Its value is 8.874.

**Q.** And the “Protein-protein interaction distance between Abp1 SH3-swapped baits, to PIN3” value (distance to Abp1 bait with PIN3 SH3, sheet Fig2C)?
**A.** The value was 8.374.

**Q.** What about the “Protein-protein interaction distance between Abp1 SH3-swapped baits, to RVS167” value (distance to Abp1 bait with RVS167 SH3, sheet Fig2C) of the same molecule?
**A.** The value was 9.049.

**Q.** And the “Protein-protein interaction distance between Abp1 SH3-swapped baits, to SDC25” value (distance to Abp1 bait with SDC25 SH3, sheet Fig2C)?
**A.** The value was 35.91.

**Q.** What about the “Protein-protein interaction distance between Abp1 SH3-swapped baits, to SHO1” value (distance to Abp1 bait with SHO1 SH3, sheet Fig2C) of the same molecule?
**A.** Its value is 10.66.

**Q.** What about the “Protein-protein interaction distance between Abp1 SH3-swapped baits, to SLA1-1” value (distance to Abp1 bait with SLA1-1 SH3, sheet Fig2C) of the same molecule?
**A.** The value was 31.98.

**Q.** What about the “Protein-protein interaction distance between Abp1 SH3-swapped baits, to SLA1-2” value (distance to Abp1 bait with SLA1-2 SH3, sheet Fig2C) of the same molecule?
**A.** Its value is 22.64.

**Q.** What about the “Protein-protein interaction distance between Abp1 SH3-swapped baits, to SLA1-3” value (distance to Abp1 bait with SLA1-3 SH3, sheet Fig2C) of the same molecule?
**A.** The value was 9.056.

**Q.** And the “Protein-protein interaction distance between Abp1 SH3-swapped baits, to YSC84” value (distance to Abp1 bait with YSC84 SH3, sheet Fig2C)?
**A.** Its value is 9.995.

**Q.** And the “PPIs gained by Abp1 - SH3-dependent PPIs gained by Abp1” value [1]?
**A.** Its value is 24.

**Q.** What about the “SH3-dependent PPIs - SH3-dependent PPIs gained by Abp1” value [1] of the same molecule?
**A.** Its value is 13.

**Q.** What about the “SH3-dependent PPIs gained by Abp1” value (number of PPIs, Abp1 SH3-swapped with the listed SH3, DHFR-PCA, Fig2D,S2F) of the same molecule?
**A.** The value was 4.

— article PMC7954794, “Protein context shapes the specificity of SH3 domain-mediated interactions in vivo” (Nature Communications, 2021)
